In publication PMC9160250, “Nuclear Vav3 is required for polycomb repression complex-1 activity in B-cell lymphoblastic leukemogenesis” (Nature Communications, 2022):

Target: T1, Bmi1 (mouse (endogenous in Ba/F3 cells and …, UniProt P25916 1-324))
T1 construct: Bmi1, mouse, endogenous protein of Ba/F3 cells and of primary murine B-cell progenitors; also called PCGF4; source: endogenous, Ba/F3 cells (cytoplasmic and nuclear fractions; fixed cells) and murine B-cell progenitors (fixed cells)
T1 sequence (looked up): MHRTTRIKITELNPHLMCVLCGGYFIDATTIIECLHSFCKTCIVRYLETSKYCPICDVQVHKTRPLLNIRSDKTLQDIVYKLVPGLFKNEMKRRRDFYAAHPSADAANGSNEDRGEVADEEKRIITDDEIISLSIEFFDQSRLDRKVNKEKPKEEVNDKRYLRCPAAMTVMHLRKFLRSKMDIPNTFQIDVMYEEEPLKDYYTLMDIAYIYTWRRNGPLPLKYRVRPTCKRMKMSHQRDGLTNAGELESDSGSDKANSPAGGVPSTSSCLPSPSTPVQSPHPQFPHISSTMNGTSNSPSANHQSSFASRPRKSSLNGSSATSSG
Experiment: proximity ligation; Duolink PLA in fixed, permeabilised primary murine B-cell progenitors on fibronectin-coated slides (empty vector or p190-BCR-ABL transduced; WT, Rac2-/-, or Vav3-/- transduced with empty vector, Vav3 FL or Vav3 N369A); confocal microscopy
Details: partners not purified

B1: Vav3 NA (N369A mutant which loses the GEF activity) (natural protein, UniProt Q9R0C8 1-847, looked up)
chain: MEPWKQCAQWLIHSKVLPPNHRVTWDSAQVFDLAQTLRDGVLLCQLLNNLRPHSINLKEINLRPQMSQFLCLKNIRTFLAACCDTFGMRKSELFEAFDLFDVRDFGKVIETLSRLSRTPIALATGIRPFPTEESINDEDIYKGLPDLIDETRVEDEEDLYDCVYGEDEGGEVYEDLMKAEEAQQPKSQENDIRSCCLAEIRQTEEKYTETLESIEKYFMAPLKRFLTAAEFDSVFINIPDLVKVHRSLMQEIHDSIVNKDDQNLYQVFINYKERLVIYGQYCSGVESAISNLDYISKTKEDVKLKLEECSKRANNGKFTLRDLLVVPMQRVLKYHLLLQELVKHTHDPMEKANLKLALDAMKDLAQYVAEVKRDNETLREIKQFQLSIENLNQPVLLFGRPQGDGEIRITTLDKHTKQERHIFLFDLAVIVCKRKGDNYEMKEIIDLQQYKIANNPTTDKENKKWSYGFYLIHTQGQNGLEFYCKTKDLKKKWLEQFEMALSNIRPDYADSNFHDFKMHTFTRVTSCRVCQMLLRGTFYQGYLCFKCGAKAHKECLGRVDNCGRVNSVEQGPFKPPEKRTNGLRRASRQVDPGLPKMQVIRNYTGTPAPGLHEGPPLHIQAGDTVELLRGDAHSVFWQGRNLASGEVGFFPSDAVKPSPCVPKPVDYSCQPWYAGPMERLQAETELINRVNSTYLVRHRTKESGEYAISIKYNNEAKHIKILTRDGFFHIAENRKFKSLMELVEYYKHHSLKEGFRTLDTTLQFPYKEPEQPAGQRGNRTGNSLLSPKVLGIAIARYDFCARDMRELSLLKGDMVKIYTKMSANGWWRGEVNGRVGWFPSTYVEEDE
notes: Vav3 with N369A; also called Vav3(N369A); Vav3N369A; source: lentiviral vector pCDH-EF1-MCS-IRES-GFP, transduced Vav3-/- leukemic murine B-cell progenitors (fixed cells)
For B1, the “fold reduction of the PLA signal against full-length Vav3” value was about 2 fold.
